Measured values taken from US20040198654A1 (Eli Lilly, published 2004).
Where no end group is shown, it is not given here.

Target: GLP-1 receptor
Assay: cell-based or functional assay

Binder | GLP-1 receptor activation relative to Val^8-GLP-1(7-37)OH
HVEGTYTSDVSSYLEEQAAKEFIAWLVKGRG-OH [Val^8-Tyr^12-Glu^22-GLP-1(7-37)OH] | 2.7 fold of Val^8-GLP-1(7-37)OH
HVDGIFTSDYSSYLEEQAAKEFIAWLVKGRG-OH [Val^8-Asp^9-Ile^11-Tyr^16-Glu^22-GLP-1(7-37)OH] | 4.3 fold of Val^8-GLP-1(7-37)OH
HVEGTFTSDLSSYLEGQAAKEFIAWLVKGRG-OH [Val^8-Leu^16-GLP-1(7-37)OH] | 1.1 fold of Val^8-GLP-1(7-37)OH
HVEGTFTSDWSSYLEEQAAKEFIAWLIKGRG-OH [Val^8-Trp^16-Glu^22-Ile^33-GLP-1(7-37)OH] | 4.1 fold of Val^8-GLP-1(7-37)OH
HVEGTFTSDLSSYLEEQAAKEFIAWLVKGRG-OH [Val^8-Leu^16-Glu^22-GLP-1(7-37)OH] | 4.3 fold of Val^8-GLP-1(7-37)OH
HVEGTYTSDYSSYLEGQAAKEFIAWLVKGRG-OH [Val^8-Tyr^12-Tyr^16-GLP-1(7-37)OH] | 1.5 fold of Val^8-GLP-1(7-37)OH
HVEGTFTSDVSSYLEEQAIKEFIAWLVKGRG-OH [Val^8-GLU^22-Ile^25-GLP-1(7-37)OH] | 3.1 fold of Val^8-GLP-1(7-37)OH
HVEGTFTSDVSSYLEEQAAKIFIAWLVKGRG-OH [Val^8-Glu^22-Ile^27-GLP-1(7-37)OH] | 2 fold of Val^8-GLP-1(7-37)OH
HVEGTYTSDVSSYLEGQAAKEFIAWLVKGRG-OH [Val^8-Tyr^12-GLP-1(7-37)OH] | 1.7 fold of Val^8-GLP-1(7-37)OH
HVEGTFTSDISSYLEEQAAKEFIAWLVKGRG-OH [Val^8-Ile^16-Glu^22-GLP-1(7-37)OH] | 3.3 fold of Val^8-GLP-1(7-37)OH
HVEGTFTSDVSSYLEGQAAKEFIEWLVKGRG-OH [Val^8-Glu^30-GLP-1(7-37)OH] | 0.7 fold of Val^8-GLP-1(7-37)OH
HVEGTFTSDVSSYLEEQALKEFIAWLVKGRG-OH [Val^8-Glu^22-Leu^25-GLP-1(7-37)OH] | 2.8 fold of Val^8-GLP-1(7-37)OH
HVEGTFTSDVSKYLEEQAAKEFIAWLVKGRG-OH [Val^8-Lys^18-Glu^22-GLP-1(7-37)OH] | 2.5 fold of Val^8-GLP-1(7-37)OH
HVEGTFTSDFSSYLEEQAAKEFIAWLVKGRG-OH [Val^8-Phe^16-Glu^22-GLP-1(7-37)OH] | 2.3 fold of Val^8-GLP-1(7-37)OH
HVEGTFTSDVSSYLEGQALKEFIAWLVKGRG-OH [Val^8-Leu^25-GLP-1(7-37)OH] | 0.5 fold of Val^8-GLP-1(7-37)OH
HVEGTFTSDVSSYLEGQAAKEFIAWLVKGRH-OH [Val^8-His^37-GLP-1(7-37)OH] | 1.2 fold of Val^8-GLP-1(7-37)OH

Binder | GLP-1 receptor activation relative to Val^8-GLP-1(7-37)OH
HVEGTWTSDVSSYLEEQAAKEFIAWLVKGRG-OH [Val^8-Trp^12-Glu^22-GLP-1(7-37)OH] | 1.7 fold of Val^8-GLP-1(7-37)OH
HVEGTFTSDVSFYLEEQAAKEFIAWLVKGRG-OH [Val^8-Phe^18-Glu^22-GLP-1(7-37)OH] | 2 fold of Val^8-GLP-1(7-37)OH
HVEGTFTSDYSSFLEGQAAKEFIAWLVKGRG-OH [Val^8-Tyr^16-Phe^19-GLP-1(7-37)OH] | 2.8 fold of Val^8-GLP-1(7-37)OH
HVEGTFTSDVSSYLEEQAAKEFIAWLVKGRH-OH [Val^8-Glu^22-His^37-GLP-1(7-37)OH] | 4.7 fold of Val^8-GLP-1(7-37)OH
HVEGTFTSDVSSFLEEQAAKEFIAWLVKGRG-OH [Val^8-Phe^19-Glu^22-GLP-1(7-37)OH] | 1.5 fold of Val^8-GLP-1(7-37)OH
HVEGTFTSDVSSWLEEQAAKEFIAWLVKGRG-OH [Val^8-Trp^19-Glu^22-GLP-1(7-37)OH] | 3.2 fold of Val^8-GLP-1(7-37)OH
HVEGTFTSDVSSYFEEQAAKEFIAWLVKGRG-OH [Val^8-Phe^20-Glu^22-GLP-1(7-37)OH] | 2.7 fold of Val^8-GLP-1(7-37)OH
HVEGTYTSDVSSYLEGQAAKEFIAWLVKGR-NH2 [Val^8-Tyr^12-GLP-1(7-36)NH2] | 1.1 fold of Val^8-GLP-1(7-37)OH
HVEGTFTSDYSSYLEGQAAKEFIAWLVKGRG-OH [Val^8-Tyr^16-GLP-1(7-37)OH] | 2.5 fold of Val^8-GLP-1(7-37)OH
HVEGTFTSDWSSYLEEQAVKEFIAWLVKGRG-OH [Val^8-Trp^16-Glu^22-Val^25-GLP-1(7-37)OH] | 4.4 fold of Val^8-GLP-1(7-37)OH
HVEGTFTSDYSSWLEEQAAKEFIAWLVKGRG-OH [Val^8-Tyr^16-Trp^19-Glu^22-GLP-1(7-37)OH] | 3.5 fold of Val^8-GLP-1(7-37)OH
HGEGTFTSDVSSYLEGQAAKEFIAWLVKGRG-OH [Gly^8-GLP-1(7-37)OH] | 1.7 fold of Val^8-GLP-1(7-37)OH
HVEGTFTSDVSIYLEEQAAKEFIAWLVKGRG-OH [Val^8-Ile^18-Glu^22-GLP-1(7-37)OH] | 4 fold of Val^8-GLP-1(7-37)OH
HVEGTFTSDWSSYLEEQAVKEFIAWLIKGRG-OH [Val^8-Trp^16-Glu^22-Val^25-Ile^33-GLP-1(7-37)OH] | 5 fold of Val^8-GLP-1(7-37)OH
HVEGTWTSDVSSYLEGQAAKEFIAWLVKGRG-OH [Val^8-Trp^12-GLP-1(7-37)OH] | 1.1 fold of Val^8-GLP-1(7-37)OH
